Assay: yeast display, Sf9 membrane polyspecificity reagent, FACS + sequencing; frameworks hold sequencing errors
Procedure, shortened: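 A nanobody's polyreactivity label depends on the gate it was sorted from. Yeast display cells were stained with 10% biotinylated, detergent-solubilized Sf9 membrane reagent for 1 hour at 4 °C, enriched on streptavidin microbeads and sorted by FACS. The low and high (top ~1%) gates were set on anti-HA fluorescence for expression and streptavidin fluorescence for reagent binding.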

Which “polyreactivity (PSR sort gate)” value does the source give for “QVQLVESGGGLVQAGGSLRLSCAASGSTFFPYAMGWYRQAPGKVRELVAAIRWSGGRTYYADSVKGRFTISRDNPKNTVFLQMNSLKPEDTAVYYCNGYSVYVRGEYWGQGTQVTVSS” here?
Its value is “high polyreactivity”.

For “QVQLVESGGGLVQAGGSLRLSCAASGSTFFQYAMGWYRQAPGKERELVAAITSGGSTNYADSVKGRFTISRDNAKNTVYLQMNSLKPEDTAVYYCAAESKSGAFDYWGQGTQVTVSS”, which “polyreactivity (PSR sort gate)” value is on record?
Its value is “low polyreactivity”.

With “QVQLVESGGGLVQAGGSLRLSCAASGSTFFRYAMGWYRQAPGKEREFVAAITSSGGNTYYADSVKGRFTISRDNAKNTVYLQMNSLKPEDTAVYYCAAVWYSPYVKYNYWGQGTQVTVSS” as the sequence, how does the “polyreactivity (PSR sort gate)” value read?
Its value is “low polyreactivity”.

For “QVQLVESGGGLVQAGGSLRLSCAASGSTFFRYAMGWYRQAPGKERELVAAISASGGRTYYADSVKGRFTISRDNAKNTVYLQMNSLKPEDTAVYYCNRQYGPYQYYYWGQGTQVTVSS”, which “polyreactivity (PSR sort gate)” value is on record?
Its value is “high polyreactivity”.

With “QVQLVESGGGLVQAGGSLRLSCAASGSTFFRYAMGWYRQAPGKERELVAAISKSGASTYYADSVKGRFTISRDNAKNTVYLQMNSLNPEDTAVYYCNADVKKSSAREWQYGYDYWGQGTQVTVSS” as the sequence, how does the “polyreactivity (PSR sort gate)” value read?
The value was “low polyreactivity”.

With “QVQLVESGGGLVQAGGSLRLSCAASGSTFFRYAMGWYRQAPGKERELVAAISWSGGTTYYADSVKGRFTISRDNAKNTVYLQMNSLKPEDTAVYYCAVDGGRWGQGTQVTVSS” as the sequence, how does the “polyreactivity (PSR sort gate)” value read?
Its value is “low polyreactivity”.

With “QVQLVESGGGLVQAGGSLRLSCAASGSTFFRYAMGWYRQAPGKERELVAAITSGGNTYYADSVKGRFTISRDNAKNTVYLQMNSLKPEDSAVYYCAADVYHWIHEYDYWGQGTQVTVSS” as the sequence, how does the “polyreactivity (PSR sort gate)” value read?
The value was “low polyreactivity”.

For “QVQLVESGGGLVQAGGSLRLSCAASGSTFFRYDMGWYRQAPGKERELVADINYNGGSTYYADSVKGRFTISRDNAKNTVYLQMNSLKPEDTAVYYCAAAYRVRGRTYDSWGQGTQVTVSS”, which “polyreactivity (PSR sort gate)” value is on record?
Its value is “high polyreactivity”.

For “QVQLVESGGGLVQAGGSLRLSCAASGSTFFSNAMGRYRQAPGKERELVAAISWSGGSTYYADSVKGRFTISRDNAKNTVYLKLNSLKPEDTAVYYCGADYYGYWYDFEGDHWGQGTQVTVSS”, which “polyreactivity (PSR sort gate)” value is on record?
The value was “low polyreactivity”.

For “QVQLVESGGGLVQAGGSLRLSCAASGSTFFSYDMGWYRQAPGKERELVATISTSVGRTYYADSVKGRFTISRDNAKNTVYLLMNSLKPEDTAVYYCNSDSLGYLYNYYWPAYDHWGQGTQVTVSS”, which “polyreactivity (PSR sort gate)” value is on record?
Its value is “low polyreactivity”.

With “QVQLVESGGGLVQAGGSLRLSCAASGSTFFTYTMGWYRQAPGKERELVATITTSGGSTYYADSVKGRFTISRDNAKNTVYLQMNSLKPEDTAVYYCAADWDPGYYVQYGYDYWGQGTQVTVSS” as the sequence, how does the “polyreactivity (PSR sort gate)” value read?
Its value is “low polyreactivity”.

Which “polyreactivity (PSR sort gate)” value does the source give for “QVQLVESGGGLVQAGGSLRLSCAASGSTFFVNAMGWYRQAPGKERELVAAISTSGGRTYYADSVKGRFTISRDNAKNTVYLQMNSLKPEDTAVYYCAAYLRSPKGYYYWGQGTQVTVSS” here?
Its value is “high polyreactivity”.

For “QVQLVESGGGLVQAGGSLRLSCAASGSTFFVYAMGWYRQPPGKERELVADINWSSGITYYADSVKGRFTISRDNAKNNVYLQMNSLKREDTAVYYCKKDERYVTWSYFPNRYNYWGQGTQVTVSS”, which “polyreactivity (PSR sort gate)” value is on record?
Its value is “low polyreactivity”.

Which “polyreactivity (PSR sort gate)” value does the source give for “QVQLVESGGGLVQAGGSLRLSCAASGSTFFYYAMGWYRQAPGKERELVAAISGNGGSTYYADSVKGRFTISRDNAKNTVYLQMNSLKPEDPAVYYCAAVSSWDEYYYWGQGTQVTVSS” here?
Its value is “high polyreactivity”.

With “QVQLVESGGGLVQAGGSLRLSCAASGSTFGANAMGWYRQAPGKEREFVAAISRSGVRTYYADSVKGRFTISRDNAKNTVYVQMNSLKPEDSAVYYCAADGYWLTYTRYDYWGQGTQVTVSS” as the sequence, how does the “polyreactivity (PSR sort gate)” value read?
The value was “low polyreactivity”.

Which “polyreactivity (PSR sort gate)” value does the source give for “QVQLVESGGGLVQAGGSLRLSCAASGSTFGANAMGWYRQAPGKERELVAVITWNDGSTYYADSVKGRFTISRDNAKNTVYLQMNSLKPEDTAVYYCATDPTSGRFYYWGQGTQVTVSS” here?
Its value is “high polyreactivity”.

With “QVQLVESGGGLVQAGGSLRLSCAASGSTFGAYAMGWYRQAPGKEREFVAGISVRGGSTYYADSVKGRFTISRDNAKNTVYLQMNSLKPEDTAVYYCAARRVDTRFHVRYRYYYWGQGTQVTVSS” as the sequence, how does the “polyreactivity (PSR sort gate)” value read?
The value was “high polyreactivity”.

For “QVQLVESGGGLVQAGGSLRLSCAASGSTFGAYDMGWYRQAPGKERELVAVISSRDGSTYYADSVKGRFTISRDNAKNTVYLQMNSLKPEDTAVYYCAADYPVPYNGGDGSWGQGTQVTVSS”, which “polyreactivity (PSR sort gate)” value is on record?
Its value is “low polyreactivity”.

For “QVQLVESGGGLVQAGGSLRLSCAASGSTFGAYVMGWYRQAPGTERELVAVISSGGSTKYADSVKGRFTISRDNAKNTVYLQMNSLKPEDTAVYYCSARRASRHRYYPFDYWGQGTQVTVSS”, which “polyreactivity (PSR sort gate)” value is on record?
Its value is “high polyreactivity”.

With “QVQLVESGGGLVQAGGSLRLSCAASGSTFGDNAMGWYRQAPGKERELVATITSGGNTNYADSVKGRFTISRDNAKNTVYLQMNSLKPEDTAGYYCNTDFRPAGTTGTTTARYEYWGQGTQVTLSS” as the sequence, how does the “polyreactivity (PSR sort gate)” value read?
Its value is “low polyreactivity”.

Which “polyreactivity (PSR sort gate)” value does the source give for “QVQLVESGGGLVQAGGSLRLSCAASGSTFGDYAMGGYRQAPGKERELVAAISFSDGSTYYADSVKGRFTISRDNAKNTVYLQMNSLKPEDTAVYYCAKDAYWGYRWYTYDYWGQGTQVTVSS” here?
The value was “low polyreactivity”.

Which “polyreactivity (PSR sort gate)” value does the source give for “QVQLVESGGGLVQAGGSLRLSCAASGSTFGDYAMGGYRQAPGKERELVAANDQNGGSTYYADSVKGRITISRDNAKNTVYLQMNSLIPEDTAVYYCAAESIYDWYDYGGQGTQVTVSS” here?
The value was “low polyreactivity”.

Which “polyreactivity (PSR sort gate)” value does the source give for “QVQLVESGGGLVQAGGSLRLSCAASGSTFGDYAMGWYRQAPGKREFVAAISFSGGNTYYADSVKGRFTISRDNAKNTVYLQMNSLKPEDTAVYYCNASSYPWEYYYLYYGYDYWGQGTQVTVSS” here?
Its value is “low polyreactivity”.

For “QVQLVESGGGLVQAGGSLRLSCAASGSTFGEYAMGWSRQAPGKERELVATITSAGSTYYADSVKGRITFSRDNAKYTVYLQMNSLKPEDTAVYYCAVDPISQGHMDYWVQGTQVTVSS”, which “polyreactivity (PSR sort gate)” value is on record?
The value was “low polyreactivity”.

For “QVQLVESGGGLVQAGGSLRLSCAASGSTFGEYAMGWYRQAPGKERELVAVITSDDNTYYADSVKGRFTISRDNAKNTVYLQMNSLKPEDTAVYYCAARGYVLARSQQWRREYYWGQGTQVTVSS”, which “polyreactivity (PSR sort gate)” value is on record?
Its value is “high polyreactivity”.

With “QVQLVESGGGLVQAGGSLRLSCAASGSTFGFNALGWYRQAPGKERELVAAITFSGGTTYYADSVKGRFTISRDNAKNTVYLQMNSLKPEDTAVYYCNADVKRDRVWGGDYWGQGTQVTVSS” as the sequence, how does the “polyreactivity (PSR sort gate)” value read?
The value was “low polyreactivity”.

For “QVQLVESGGGLVQAGGSLRLSCAASGSTFGFNAMGWYRQAPGKERELVAAINSGSTTYADSVKGRFTISRDNAKNTVYLQMNSLKPEDTAVYYCAARYRYRYGYYYWGQGTQVTVSS”, which “polyreactivity (PSR sort gate)” value is on record?
Its value is “high polyreactivity”.

With “QVQLVESGGGLVQAGGSLRLSCAASGSTFGFYAMGWYRQAPGKEREFVAAITWSGGRTNYADSVKGRFTISRDNAKNTVYLQMNSLKPEDTAVYYCAAEGFVTWYRQGQVYYWGQGTQVTVSS” as the sequence, how does the “polyreactivity (PSR sort gate)” value read?
Its value is “high polyreactivity”.

With “QVQLVESGGGLVQAGGSLRLSCAASGSTFGFYMGWYRQAPGKERELVAAIDSSGGITYADSVKGRFTISRDNAKNTVYLQMNSLKPEDTAVYYCNTSYPIAPEDDYWGQGTQVTVSS” as the sequence, how does the “polyreactivity (PSR sort gate)” value read?
The value was “low polyreactivity”.

For “QVQLVESGGGLVQAGGSLRLSCAASGSTFGGNAMGWYRQAPGKERELVAAISSSGGSTYYADSVKGRFTISRDNAKITVYLQMNSLKPEDTAVYYCAALYHWTYDYWGQGTQVTVSS”, which “polyreactivity (PSR sort gate)” value is on record?
The value was “low polyreactivity”.

For “QVQLVESGGGLVQAGGSLRLSCAASGSTFGGNAMGWYRQAPGKERELVAAISSSGGSTYYADSVKGRFTISRDNAKNTVYLQMNSLKPEDTAVYYCAALYHWTYDYWGQGTQVTVSS”, which “polyreactivity (PSR sort gate)” value is on record?
The value was “low polyreactivity”.

For “QVQLVESGGGLVQAGGSLRLSCAASGSTFGGNAMGWYRQAPGKERELVAGITSSGTSTYYADSVKGRFTISRDNAKNTVYLQMNSLKPEDTAVYYCATDEADESYGFELFDYWGQGTQVTVSS”, which “polyreactivity (PSR sort gate)” value is on record?
Its value is “low polyreactivity”.

Which “polyreactivity (PSR sort gate)” value does the source give for “QVQLVESGGGLVQAGGSLRLSCAASGSTFGGNDMGWYRQAPGKERELVAAISSGTSTNYADSVKGRFTISRDNAKNTVYLQMNSLKPEDTAVYYCAAVYWVLWQGSTYGYWGQGTQVTVSS” here?
Its value is “low polyreactivity”.

With “QVQLVESGGGLVQAGGSLRLSCAASGSTFGGYAMGWYRQAPGKERELVAAISFDGGSTYADSVKGRFTISRDNAKNTVYLQMNSLKPEDTAVYYCAVKFWLVIQFDYCGQGTQVTVSS” as the sequence, how does the “polyreactivity (PSR sort gate)” value read?
Its value is “low polyreactivity”.

For “QVQLVESGGGLVQAGGSLRLSCAASGSTFGGYAMGWYRQAPGKERELVAAISRRGVSTYYADSVKGRFTISRDNAKNTVYLQMNSLKPEDTAVYYFNKKYFYSRHGSWGQGSQVTVSS”, which “polyreactivity (PSR sort gate)” value is on record?
The value was “high polyreactivity”.

With “QVQLVESGGGLVQAGGSLRLSCAASGSTFGGYAMGWYRQAPRKERELVAAISQSGTRTFYADSVKGRFSISRDNAKNTVYLQMKSLKPEDSAVYYCAAVRSYRRALLTLDYWGLGTQVTVSS” as the sequence, how does the “polyreactivity (PSR sort gate)” value read?
The value was “high polyreactivity”.

With “QVQLVESGGGLVQAGGSLRLSCAASGSTFGGYAMGWYRQEPGKERELVAAISSRGARTYYADSVKGRFTISRDNAKKTVYLQMNSLKPEDTAVYYCAARGPLDRYGYWGQGTQVTVSS” as the sequence, how does the “polyreactivity (PSR sort gate)” value read?
The value was “high polyreactivity”.

Which “polyreactivity (PSR sort gate)” value does the source give for “QVQLVESGGGLVQAGGSLRLSCAASGSTFGGYPMGRYRQAPGKERELGAAITWSGSSTTYADSVKGRFTISRDNAKKTVYLQMNSLKPEETAVYYCAAEAQDSTYPQYDYWGQGTLVTVSS” here?
Its value is “low polyreactivity”.

With “QVQLVESGGGLVQAGGSLRLSCAASGSTFGGYTMGWYRQAPGKERELVAAISRRGGSTYYADSVKGRFTISRDNAKNTVYLQMNSLKPEDTAVYYCAALYVYRPRTPYGYWGQGTQVTVSS” as the sequence, how does the “polyreactivity (PSR sort gate)” value read?
Its value is “high polyreactivity”.

For “QVQLVESGGGLVQAGGSLRLSCAASGSTFGGYVMGWYRQAPGKERELVAAISGNGASTTYADSVKGRFTISRDNAKNTVYLQMNSLKPEDTAVYYCDALYRKAHSDYDYWGQGTQVTVSS”, which “polyreactivity (PSR sort gate)” value is on record?
Its value is “low polyreactivity”.

With “QVQLVESGGGLVQAGGSLRLSCAASGSTFGHYAMGWSRQAPGKERELVAAISWSGASTYYADSVKGRFTISRDNAKNTVYLQMNSLKPEDTAVYYCATVGPWPGEYDYWGQGTQVTVSS” as the sequence, how does the “polyreactivity (PSR sort gate)” value read?
Its value is “low polyreactivity”.

Which “polyreactivity (PSR sort gate)” value does the source give for “QVQLVESGGGLVQAGGSLRLSCAASGSTFGHYAMGWSRQAPGKERELVAVISRSGARTYYADSVKGRFTISRDNAKNTVYLQMNSLKPEDTAVYYCATTYATNYDYWGQGTQVTVSS” here?
Its value is “high polyreactivity”.

Which “polyreactivity (PSR sort gate)” value does the source give for “QVQLVESGGGLVQAGGSLRLSCAASGSTFGHYAMGWYRQAPGKERELVAAITRRGGSTYYADSVKGRFTISRDNAKNTVYLQMNSLKPEDTAVYYCATDKHYVYYSSHMGYWGQGTQVTVSS” here?
The value was “high polyreactivity”.
